Laboratory results as given in US20090208976A1.

Molecular target: recombinant rat F1-ATPase β-subunit (purified protein) (rat) (UniProt P10719)
Test: BiaCore surface plasmon resonance, purified F1-ATPase β-subunit

Chain of UniProt P10719 (P10719 47-529): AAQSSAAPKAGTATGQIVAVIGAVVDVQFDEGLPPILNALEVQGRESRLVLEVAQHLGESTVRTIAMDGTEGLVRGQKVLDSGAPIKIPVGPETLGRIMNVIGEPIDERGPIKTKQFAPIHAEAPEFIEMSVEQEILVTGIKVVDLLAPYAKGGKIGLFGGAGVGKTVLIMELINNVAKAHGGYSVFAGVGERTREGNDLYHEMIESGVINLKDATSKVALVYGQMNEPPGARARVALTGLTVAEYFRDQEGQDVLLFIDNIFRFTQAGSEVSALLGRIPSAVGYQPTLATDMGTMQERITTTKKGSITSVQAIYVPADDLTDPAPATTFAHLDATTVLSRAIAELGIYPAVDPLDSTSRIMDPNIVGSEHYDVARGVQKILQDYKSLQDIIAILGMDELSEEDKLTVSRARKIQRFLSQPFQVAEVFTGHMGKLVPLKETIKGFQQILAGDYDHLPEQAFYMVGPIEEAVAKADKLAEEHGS

Substance enterostatin (peptide) has a Kd of 150 nM.
